Legend:
[1] = molecular target: T1, PD-1-mIgGFc fusion protein; test: ELISA on coated PD-1-mFc; antibody 1 µg/ml; replicate 1
T1 construct: also called PD-1-mFc; PD-1-mIgGFc antigen
Protocol: (§1) An ELISA plate was coated with PD-1-mFc antigen in a concentration of 0.5 μg/ml (50 μl per well) by incubation at 4° C. overnight.
(§2) After the ELISA plate was washed with the PBST buffer for three times and gently patted to dryness again, TMB as a developer in 50 μl per well was added for incubation at room temperature for 5 to 10 minutes.
(§3) The absorbance of solution in each well was measured with the microplate reader under a wavelength of 450 nm.

[2] = molecular target: T1, PD-1-mIgGFc fusion protein; test: competitive ELISA on coated PD-1-mIgGFc; competitor PDL1-mIgG2aFc 0.3 µg/ml; antibody 1.5 µg/ml diluted 1:729; replicate 1
Protocol: (§4) A 96-well ELISA plate was coated with PD-1-mIgGFc antigen in a concentration of 0.5 μg/ml (50 μl per well) by incubation at 4° C. overnight.
(§5) The 18A10 H1L1, 18A10 H2L2 and 18A10 H3L3 antibodies each were diluted from 3 μg/ml in series by 1:3, with 7 gradient antibody solutions obtained for each antibody. The 7 gradient antibody solutions for each antibody and the blank PBS control (50 μl per well) were respectively added into the blocked 96-well ELISA plate for incubation at room temperature for 10 minutes.
(§6) After the 96-well ELISA plate was washed with the PBST buffer for three times and gently patted to dryness, goat anti-mouse IgG-HRP (H+L) as a secondary antibody in 1:5000 dilution (50 μl per well) was added for incubation at 37° C. for 1 hour.

[3] = molecular target: T1, PD-1-mIgGFc fusion protein; test: ELISA on coated PD-1-mFc; antibody 1 µg/ml diluted 1:243; replicate 1
Protocol: as §1, §2, §3

[4] = molecular target: T1, PD-1-mIgGFc fusion protein; test: ELISA on coated PD-1-mFc; antibody 1 µg/ml diluted 1:9; replicate 2
Protocol: as §1
(§7) The ELISA plate coated with the PD-1-mFc antigen was blocked with 1% BSA in the PBS buffer at 37° C. for 2 hours, and washed with 1×PBST buffer containing 1% Tween-20 for three times, with gently patting to dryness.
as §3

[5] = molecular target: T1, PD-1-mIgGFc fusion protein; test: ELISA on coated PD-1-mFc; antibody 1 µg/ml diluted 1:27; replicate 2
Protocol: as §1, §2, §3

[6] = molecular target: T1, PD-1-mIgGFc fusion protein; test: ELISA on coated PD-1-mFc; antibody 1 µg/ml diluted 1:729; replicate 2
Protocol: as §1, §2, §3

[7] = molecular target: T1, PD-1-mIgGFc fusion protein; test: competitive ELISA on coated PD-1-mIgGFc; competitor PDL1-mIgG2aFc 0.3 µg/ml; antibody 1.5 µg/ml diluted 1:243; replicate 2
Protocol: as §4, §5, §6

[8] = molecular target: T2, PD-1 antigen stably expressed on the surface of BB007 cells (UniProt Q15116 25-288, limits assumed); test: flow cytometry on BB007 cells
T2 construct: whole, on cells; also called target protein PD-1 on the surface of the BB007 cell
T2 sequence (Q15116 25-288 limits assumed): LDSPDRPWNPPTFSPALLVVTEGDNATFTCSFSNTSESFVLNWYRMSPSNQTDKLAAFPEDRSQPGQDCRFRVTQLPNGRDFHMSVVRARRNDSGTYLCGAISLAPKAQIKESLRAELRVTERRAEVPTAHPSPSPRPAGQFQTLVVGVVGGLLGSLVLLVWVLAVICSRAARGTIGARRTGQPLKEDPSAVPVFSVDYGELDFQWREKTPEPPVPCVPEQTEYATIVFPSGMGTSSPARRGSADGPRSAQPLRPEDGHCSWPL
Protocol: (§8) The binding efficiencies of H1L1, H2L2 and H3L3 antibodies to PD-1 antigen stably expressed on the surface of cells (named as BB007 cells) were determined by flow cytometry. The BB007 cells were obtained by routine trypsin digestion, and then washed with PBS buffer once, followed by dividing into several tubes, with 2×10⁵ cells per tube. After dilution into concentrations of 20 nM, 10 nM, 5 nM, 1 nM, 0.1 nM and 0 nM with the PBS buffer containing 1% BSA for each of the H1L1, H2L2 and H3L3 antibodies, individual antibodies in a volume of 100 μl were added into individual tubes and incubated on ice for 1 hour. After the mixture was washed with the PBS buffer once, 100 μl FITC-Goat-Anti-Human IgG (in 1:500 dilution) was added for each tube and incubated on ice for 1 hour, followed by addition of 300 μl the PBS buffer for detecting fluorescence signal with a FITC channel on the flow cytometer.

[9] = molecular target: T1, PD-1-mIgGFc fusion protein; test: ELISA on coated PD-1-mFc; antibody 1 µg/ml; replicate 2
Protocol: as §1, §2, §3

[10] = molecular target: T1, PD-1-mIgGFc fusion protein; test: competitive ELISA on coated PD-1-mIgGFc; competitor PDL1-mIgG2aFc 0.3 µg/ml; antibody 1.5 µg/ml diluted 1:729; replicate 2
Protocol: as §4, §5, §3

[11] = molecular target: biotin-labeled PD-1 antigen (UniProt Q15116 25-167, limits assumed, biotin-labeled (site not stated)); test: BLI (Fortebio), biotin-labeled PD-1 on SA sensor
biotin-labeled PD-1 antigen, sequence (Q15116 25-167 limits assumed): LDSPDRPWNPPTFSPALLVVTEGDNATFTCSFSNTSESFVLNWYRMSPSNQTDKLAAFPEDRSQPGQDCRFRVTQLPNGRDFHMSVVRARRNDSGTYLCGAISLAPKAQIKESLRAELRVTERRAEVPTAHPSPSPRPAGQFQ
Protocol: Kinetic characteristic parameters of 18A10 H1L1, H2L2 and H3L3 antibodies were determined using the Fortebio molecule interaction instrument.
The biotin-labeled PD-1 antigen was immobilized on the surface of the SA sensor. […] Assays for H2L2 and H3L3 are the same as H1L1. Results of kinetic characteristic parameters of the H1L1, H2L2 and H3L3 antibodies are shown in Table 4, FIG. 4, FIG. 5 and FIG. 6.

[12] = molecular target: T1, PD-1-mIgGFc fusion protein; test: competitive ELISA on coated PD-1-mIgGFc; competitor PDL1-mIgG2aFc 0.3 µg/ml; antibody 1.5 µg/ml; replicate 2
Protocol: as §4, §5, §3

[13] = molecular target: T1, PD-1-mIgGFc fusion protein; test: ELISA on coated PD-1-mFc; antibody 1 µg/ml diluted 1:729; replicate 1
Protocol: as §1, §2, §3

[14] = molecular target: T1, PD-1-mIgGFc fusion protein; test: competitive ELISA on coated PD-1-mIgGFc; competitor PDL1-mIgG2aFc 0.3 µg/ml; antibody 1.5 µg/ml; replicate 1
Protocol: as §4, §5, §3

[15] = molecular target: T2, PD-1 antigen stably expressed on the …; test: flow cytometry on BB007 cells; antibody 10 nM
Protocol: as §8

[16] = molecular target: T1, PD-1-mIgGFc fusion protein; test: competitive ELISA on coated PD-1-mIgGFc; competitor PDL1-mIgG2aFc 0.3 µg/ml; antibody 1.5 µg/ml diluted 1:3; replicate 1
Protocol: as §4, §5, §6

[17] = molecular target: T1, PD-1-mIgGFc fusion protein; test: ELISA on coated PD-1-mFc; antibody 1 µg/ml diluted 1:243; replicate 2
Protocol: as §1, §7, §3

[18] = molecular target: T1, PD-1-mIgGFc fusion protein; test: ELISA on coated PD-1-mFc; antibody 1 µg/ml diluted 1:81; replicate 2
Protocol: as §1, §2, §3

T1 sequence (chain, as listed by the source limits assumed): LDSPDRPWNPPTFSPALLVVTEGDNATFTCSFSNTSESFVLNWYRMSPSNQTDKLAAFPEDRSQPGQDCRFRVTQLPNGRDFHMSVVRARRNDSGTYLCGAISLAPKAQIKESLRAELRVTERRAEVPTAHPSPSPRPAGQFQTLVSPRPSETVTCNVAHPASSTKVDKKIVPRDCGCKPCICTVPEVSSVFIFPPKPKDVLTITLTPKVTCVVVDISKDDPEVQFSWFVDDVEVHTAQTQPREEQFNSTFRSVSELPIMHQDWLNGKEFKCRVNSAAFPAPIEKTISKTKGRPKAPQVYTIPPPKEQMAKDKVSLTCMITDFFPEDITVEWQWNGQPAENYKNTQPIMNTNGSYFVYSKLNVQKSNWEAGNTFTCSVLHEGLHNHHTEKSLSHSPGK

Binder	absorbance at 450 nm [1]	absorbance at 450 nm (competition) [2]	absorbance at 450 nm [3]	absorbance at 450 nm [4]	absorbance at 450 nm [5]	absorbance at 450 nm [6]	absorbance at 450 nm (competition) [7]	EC50 [8]	absorbance at 450 nm [9]	absorbance at 450 nm (competition) [10]	Kd [11]	koff [11]	kon [11]	absorbance at 450 nm (competition) [12]	absorbance at 450 nm [13]	absorbance at 450 nm (competition) [14]	fluorescence intensity [15]	absorbance at 450 nm (competition) [16]	absorbance at 450 nm [17]	absorbance at 450 nm [18]
humanized antibody 18A10 H2L2 (antibody, V domains shown, also called H2L2 antibody) VH: EVQLVQSGGGLVQPGGSLKLSCAASGFTFSSYGMSWVRQAPGKGLDWVATISGGGRDTYYPDSVKGRFTISRDNSKNNLYLQMNSLRAEDTALYYCARQKGEAWFAYWGQGTLVTVSS VL: not shown	2.36	1.2	0.545	1.98	1.63	0.224	1.21	1.59 nM	2.43	1.19	0.0428 nM	9.86e-06 s⁻¹	231000 M⁻¹ s⁻¹	0.102	0.226	0.11	349	0.097	0.475	1.14
humanized antibody 18A10 H3L3 (antibody, V domains shown, also called H3L3 antibody) VH: EVQLVQSGGGLVQPGGSLKLSCAASGFTFSSYGMSWVRQAPGKGLDWVATISGGGRDTYYPDSVKGRFTISRDNSKNTLYLQMNSLRAEDTAVYYCARQKGEAWFAYWGQGTLVTVSS VL: DIVLTQSPASLAVSPGQRATITCRASESVDNYGISFMNWYQQKPGQPPKLLIYAASNKATGVPARFSGSGSGTDFTLNINPMEANDTAVYFCQQSKEVPWTFGGGTKLEIK	2.14	1.28	0.432	2.06	1.5	0.185	1.21	1.68 nM	2.44	1.24	0.114 nM	1.56e-05 s⁻¹	137000 M⁻¹ s⁻¹	0.102	0.2	0.101	386	0.103	0.377	0.809
humanized antibody 18A10 H1L1 (antibody, V domains shown, also called H1L1 antibody) VH: EVQLVQSGGGLVQPGGSLKLSCAASGFTFSSYGMSWVRQTPEKGLDWVATISGGGRDTYYPDSVKGRFTISRDNSKNNLYLQMNSLRAEDTALYYCARQKGEAWFAYWGQGTLVTVSS VL: not shown	2.47	1.35	0.45	1.98	1.65	0.163	1.21	3.38 nM	2.32	1.3	0.036 nM	1.32e-05 s⁻¹	367000 M⁻¹ s⁻¹	0.107	0.186	0.11	316	0.123	0.431	0.834
